Literature values as cited in publication PMC5871670.

Legend:
uPAR (Homo sapiens) = uPAR (Homo sapiens) (UniProt Q03405); experiment: surface plasmon resonance
gC1q-R (Homo sapiens) = gC1q-R (Homo sapiens) (UniProt Q07021); experiment: surface plasmon resonance
[1] = molecular target: cytokeratin 1 (CK1) (Homo sapiens) (UniProt P04264); experiment: surface plasmon resonance
Factor XI (Homo sapiens) = Factor XI (Homo sapiens) (UniProt P03951)
Chain of UniProt P03951 (P03951 388-625): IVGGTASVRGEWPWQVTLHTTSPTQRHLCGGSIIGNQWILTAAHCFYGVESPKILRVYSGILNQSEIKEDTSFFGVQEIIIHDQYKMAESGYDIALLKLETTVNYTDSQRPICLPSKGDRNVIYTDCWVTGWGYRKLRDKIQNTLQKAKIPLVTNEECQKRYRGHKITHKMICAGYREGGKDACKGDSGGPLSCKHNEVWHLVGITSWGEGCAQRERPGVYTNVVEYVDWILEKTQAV

Chain of UniProt Q07021 (Q07021 74-282): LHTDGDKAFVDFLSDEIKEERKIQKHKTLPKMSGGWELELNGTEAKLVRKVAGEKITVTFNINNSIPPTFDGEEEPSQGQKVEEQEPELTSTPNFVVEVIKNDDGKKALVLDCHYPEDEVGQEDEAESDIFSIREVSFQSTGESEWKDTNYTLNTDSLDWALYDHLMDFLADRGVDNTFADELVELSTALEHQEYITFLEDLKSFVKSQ
Chain of UniProt Q03405 (Q03405 23-305): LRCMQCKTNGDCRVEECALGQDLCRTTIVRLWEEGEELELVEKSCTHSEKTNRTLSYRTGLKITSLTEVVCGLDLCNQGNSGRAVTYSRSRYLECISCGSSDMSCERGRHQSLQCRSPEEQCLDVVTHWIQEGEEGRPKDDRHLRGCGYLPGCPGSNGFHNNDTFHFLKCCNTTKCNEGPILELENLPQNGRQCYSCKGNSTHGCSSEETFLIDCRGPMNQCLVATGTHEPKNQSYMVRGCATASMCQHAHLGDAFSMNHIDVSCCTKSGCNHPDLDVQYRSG
Chain of UniProt P04264 (P04264 2-644): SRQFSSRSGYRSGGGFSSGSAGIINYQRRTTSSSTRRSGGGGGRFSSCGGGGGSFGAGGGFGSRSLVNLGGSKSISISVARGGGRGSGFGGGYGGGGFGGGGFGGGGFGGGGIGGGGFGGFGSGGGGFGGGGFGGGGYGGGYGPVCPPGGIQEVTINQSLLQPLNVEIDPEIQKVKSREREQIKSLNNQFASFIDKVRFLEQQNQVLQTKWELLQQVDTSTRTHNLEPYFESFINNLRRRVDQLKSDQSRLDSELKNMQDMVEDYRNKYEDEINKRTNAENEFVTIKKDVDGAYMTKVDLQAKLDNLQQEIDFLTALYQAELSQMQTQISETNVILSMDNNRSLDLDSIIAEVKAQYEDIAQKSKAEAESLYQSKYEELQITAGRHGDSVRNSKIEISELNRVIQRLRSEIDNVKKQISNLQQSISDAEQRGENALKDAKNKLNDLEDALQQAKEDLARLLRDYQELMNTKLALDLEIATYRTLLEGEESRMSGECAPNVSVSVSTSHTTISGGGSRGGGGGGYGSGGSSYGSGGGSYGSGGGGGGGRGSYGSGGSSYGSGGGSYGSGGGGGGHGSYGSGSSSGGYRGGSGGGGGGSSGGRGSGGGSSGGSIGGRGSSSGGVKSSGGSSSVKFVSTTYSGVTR

| Kd (uPAR (Homo sapiens)) | Kd (gC1q-R (Homo sapiens)) | Kd [1] | Kd (Factor XI (Homo sapiens)) | Substance |
| --- | --- | --- | --- | --- |
| 2.3 µM | 0.0008 µM | 0.015 µM |  | high molecular weight kininogen (HK) (from UniProt P01042) |
|  |  |  | 0.052 µM | GPIbα (from UniProt P07359) |
